Among the data in doi:10.1101/546648 are Kd values, retold here.

pKd: −log10 of the molar value.

The data set deals with OrnVc (oligoribonuclease) (Vibrio cholerae O1 El Tor?) (UniProt Q9KV17). As to the kind of experiment: DRaCALA. To be noted: 5' phosphate.

Take pGpG (GG, 2-mer): the pKd was 7.05.

As a reminder, the pKd is the negative decadic logarithm of the Kd, by convention in mol/L.
